Source: patent US7105641

Columns and labels:
[1] = molecular target: MCP-1RB (monocyte chemoattractant protein-1 receptor B) (human) (UniProt P41597); assay: cell-based or functional assay
[2] = molecular target: MIP-1α/RANTES receptor (Homo sapiens (Human)) (UniProt P32246); assay: cell-based or functional assay
Sequence of MIP-1α/RANTES receptor (Homo sapiens (Human)) (P32246 whole entry): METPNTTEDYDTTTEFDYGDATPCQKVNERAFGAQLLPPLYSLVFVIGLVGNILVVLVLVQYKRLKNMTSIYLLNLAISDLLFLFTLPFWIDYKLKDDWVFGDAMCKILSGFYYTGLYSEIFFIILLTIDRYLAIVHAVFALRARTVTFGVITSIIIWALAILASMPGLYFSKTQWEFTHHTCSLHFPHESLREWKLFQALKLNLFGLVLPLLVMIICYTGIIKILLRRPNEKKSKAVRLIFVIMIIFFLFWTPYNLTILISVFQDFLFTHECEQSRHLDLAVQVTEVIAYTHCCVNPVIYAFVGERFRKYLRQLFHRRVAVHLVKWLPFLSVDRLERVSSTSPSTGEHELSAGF

Sequence of MCP-1RB (monocyte chemoattractant protein-1 receptor B) (human) (P41597 other isoform, or with tags, fused parts or gaps): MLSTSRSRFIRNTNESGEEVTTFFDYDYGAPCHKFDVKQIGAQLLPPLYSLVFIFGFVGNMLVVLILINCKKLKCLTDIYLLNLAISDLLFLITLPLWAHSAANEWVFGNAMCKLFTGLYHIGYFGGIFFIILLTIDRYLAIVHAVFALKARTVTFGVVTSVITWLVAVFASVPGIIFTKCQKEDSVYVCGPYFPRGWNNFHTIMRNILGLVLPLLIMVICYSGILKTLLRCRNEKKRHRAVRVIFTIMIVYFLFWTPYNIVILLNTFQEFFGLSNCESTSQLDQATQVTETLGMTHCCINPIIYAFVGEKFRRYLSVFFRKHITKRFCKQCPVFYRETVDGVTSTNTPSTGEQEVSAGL

IC50(nM), Inhibition of Adenylyl Cyclase [1] [nM] | IC50(nM), Inhibition of Adenylyl Cyclase [2] [nM] | Substance
> 1000 |  | IL-8 (interleukin-8) (from UniProt P10145 28-99) (ligand)
> 1000 |  | MIP-1β (from UniProt P13236 24-92) (ligand)

Further lines, the substance ahead of its results:

Substance | IC50(nM), Inhibition of Adenylyl Cyclase [1] [nM] | IC50(nM), Inhibition of Adenylyl Cyclase [2] [nM]
Gro-α (from UniProt P09341 35-107) (ligand) | > 1000 | > 1000
RANTES (from UniProt P13501 24-91) (ligand) | > 1000 | 
MIP-1α (from UniProt P10147 27-92) (ligand) | > 1000 | 
